In this assay the target is porcine colonic mucins (porcine). Briefly: SPR.

“recombinant BL0675 A type with a C-terminal 6 x His tag (natural protein)” gave a Kd of 98.2 nM, a koff of 0.00279 s⁻¹ and an association rate constant (kon) of 28400 M⁻¹ s⁻¹.
